In PMC6543813:
pKd: −log10 of the molar value. Read-outs that look alike come from different tables or passages of the source.

Columns and labels:
[1] = target: recombinant VLDLR(1–8) fragment of the VLDL receptor; assay: SPR
[2] = target: recombinant (β15–66)2-R^17 mutant with Arg17Glu mutation (UniProt P02675); assay: ELISA
[3] = target: (β15–66)2-K^53K^54K^58 mutant fragment (UniProt P02675); assay: ELISA
[4] = target: recombinant dimeric (β15–66)2 fragment (UniProt P02675); assay: ELISA
[5] = target: (β15–66)2-R^57 mutant fragment (UniProt P02675); assay: ELISA
[6] = target: (β15–66)2-K^21K^22 mutant fragment (UniProt P02675); assay: ELISA
[7] = target: (β15–66)2-R^30 mutant fragment (UniProt P02675); assay: ELISA
[8] = target: recombinant dimeric (β15–66)2 fragment (UniProt P02675); assay: ELISA; remark: listed apart in the source
[9] = target: recombinant VLDLR(1–8) fragment of the VLDL receptor; assay: SPR; remark: listed apart in the source

| pKd [1] | Substance | also measured |
| --- | --- | --- |
| 7.43 | (β15–66)2-K^21K^22 mutant fragment (from UniProt P02675 45-94) (domain or fragment) |  |
| 6.76 | (β15–66)2-K^21K^22R^23 mutant fragment (from UniProt P02675 45-94) (domain or fragment) |  |
| 6.60 | (β15–66)2-K^53K^54K^58 mutant fragment (from UniProt P02675 45-94) (domain or fragment) |  |
| 4.93 | (β15–66)2-K^53K^54R^57K^58 mutant fragment (from UniProt P02675 45-94) (domain or fragment) |  |
| 6.69 | (β15–66)2-R^42R^44 mutant fragment (from UniProt P02675 45-94) (domain or fragment) |  |
| 5.21 | (β15–66)2-R^42R^44K^47 mutant fragment (from UniProt P02675 45-94) (domain or fragment) |  |
|  | recombinant VLDLR(1–8) fragment of the VLDL receptor (domain or fragment) | pKd [2]: 8.14; pKd [3]: 6.91; pKd [4]: 7.87; pKd [5]: 8.19; pKd [6]: 7.68; pKd [7]: 8.20; pKd [8]: 7.47 |
| 7.95 | recombinant dimeric (β15–66)2 fragment (from UniProt P02675 45-94) (domain or fragment) | pKd [9]: 7.69 |
| 5.21 | recombinant monomeric β15–64 fragment (from UniProt P02675 45-94) (domain or fragment) |  |
